Assay results taken from the supplement of paper PMC11196671.
± gives the standard deviation of the averaged measurements.

Assays:
[1] = MHET released, HPLC; higher = more MHET released; extreme values may be limits of the assay; conditions: 24 h
Description: (§1)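 Purified PET hydrolases, 2.5 ug enzyme on 3.5 mg amorphous PET film (aFilm) or crystalline PET powder (cryPow) in 0.5 mL of 50 mM buffer (NaCitrate pH 4.5/5.5, NaPhosphate 6.5/7.5, glycine 8.5/9.5) at 60 or 70 C with shaking for 24 h. Total aromatic product by UV-Vis (260/280 nm, blank-subtracted, normalised per mg enzyme) and individual TPA, MHET, BHET concentrations by UHPLC-DAD at 240 nm; duplicate reactions.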

[2] = terephthalic acid (TPA) released, HPLC; higher = more TPA released; extreme values may be limits of the assay; conditions: 24 h
Description: as §1

[3] = PET hydrolysis product formed (TPA+MHET+BHET, UV-Vis) per mg enzyme (mmol/mg enzyme); higher = more PET depolymerisation activity; extreme values may be limits of the assay; conditions: 2 h
Description: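 Purified PET hydrolases (His-SUMO cleaved, E. coli C41(DE3) small-scale expression), 2.5 ug enzyme on 3.5 mg amorphous PET film (aFilm) or crystalline PET powder (cryPow) in 0.5 mL of 50 mM buffer (NaCitrate pH 4.5/5.5, NaPhosphate 6.5/7.5, glycine 8.5/9.5) at 60 or 70 C with shaking for 2 h. Soluble aromatic products (TPA+MHET+BHET) were quantified by UV-Vis at 260/280 nm, blank-subtracted against the no-enzyme control, and normalised per mg enzyme; duplicate reactions.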

[4] = as above; conditions: 24 h
Description: as §1

SNPYQRGPNPTRSALTADGPFSVRTYTISRLSVSGFGGGVIYYPTGTSLTFGGIAMSPGYTADASSLAWLGRRLASHGFVVLVINTNSRFDGPDSRASQLSAALNYLRTSSPSAVRARLDANRLAVAGHSMGGGGTLRIAEQNPSLKAAVPLTPWHTDKTFNTSVPVLIVGAEADTVAPVSQHAIPFYQNLPSTTPKVYVELCNASHIAPNSPNAAISVYTISWMKLWVDNDTRYRQFLCNVNDPALCDFRTNNRHCQ [LCC-ICCG RIP]
Conditions	MHET released, [1] [mM]	PET hydrolysis product formed, [3]	PET hydrolysis product formed, [4]	terephthalic acid, [2] [mM]
PET substrate: aFilm, 60 °C, pH 4.5	0.0627 ± 0.036	0	0.029 ± 0.018	0.0858 ± 0.039
PET substrate: aFilm, 60 °C, pH 5.5	0.19 ± 0.029	0.0147 ± 0.0032	0.0802 ± 0.0094	0.202 ± 0.018
PET substrate: aFilm, 60 °C, pH 6.5	0.477 ± 0.12	0.0276 ± 0.011	0.202 ± 0.029	0.423 ± 0.091
PET substrate: aFilm, 60 °C, pH 7.5	1.93 ± 0.73	0.0697 ± 0.0075	0.775 ± 0.2	1.96 ± 0.034
PET substrate: aFilm, 60 °C, pH 8.5	0.309 ± 0.017	0.0326 ± 0.014	0.127 ± 0.0045	0.346 ± 0.022
PET substrate: aFilm, 60 °C, pH 9.5	1.34 ± 0.86	0.0672 ± 0.0077	0.684 ± 0.33	1.27 ± 0.21
PET substrate: aFilm, 70 °C, pH 4.5	0.00485 ± 0.0069	0	0	0.00741 ± 0.011
PET substrate: aFilm, 70 °C, pH 5.5	0.23 ± 0.039	0.0525 ± 0.025	0.103 ± 0.02	0.255 ± 0.036
PET substrate: aFilm, 70 °C, pH 6.5	0.352 ± 0.0081	0.0606 ± 0.0062	0.181 ± 0.01	0.361 ± 0.0096
PET substrate: aFilm, 70 °C, pH 7.5	2.36 ± 0.12	0.151 ± 0.029	1.26 ± 0.084	1.63 ± 0.096
PET substrate: aFilm, 70 °C, pH 8.5	0.217 ± 0.02	0.0612 ± 0.0035	0.1 ± 0.01	0.2235 ± 0.00086
PET substrate: aFilm, 70 °C, pH 9.5	0.896 ± 0.27	0.175 ± 0.028	0.65 ± 0.11	1.66 ± 0.21
PET substrate: cryPow, 60 °C, pH 4.5	0.0685 ± 0.0031	0.011 ± 0.0027	0.0235 ± 0.002	0.0388 ± 0.004
PET substrate: cryPow, 60 °C, pH 5.5	0.1986 ± 0.00074	0.0235 ± 0.0071	0.0628 ± 0.0065	0.0956 ± 0.00098
PET substrate: cryPow, 60 °C, pH 6.5	0.257 ± 0.023	0.0304 ± 0.0038	0.082 ± 0.00092	0.113 ± 0.0086
PET substrate: cryPow, 60 °C, pH 7.5	0.292 ± 0.032	0.0711 ± 0.032	0.113 ± 0.0013	0.147 ± 0.015
PET substrate: cryPow, 60 °C, pH 8.5	0.186 ± 0.073	0.0405 ± 0.033	0.0714 ± 0.033	0.121 ± 0.061
PET substrate: cryPow, 60 °C, pH 9.5	0.0905 ± 0.035	0.0143 ± 0.0041	0.0784 ± 0.011	0.307 ± 0.072
PET substrate: cryPow, 70 °C, pH 4.5	0.0111 ± 0.0025	0	0	0.00368 ± 0.0052
PET substrate: cryPow, 70 °C, pH 5.5	0.10965 ± 4.2e-05	0.0166 ± 0.0036	0.0369 ± 0.0017	0.057 ± 0.0034
PET substrate: cryPow, 70 °C, pH 6.5	0.2013 ± 0.0014	0.0257 ± 0.0033	0.0809 ± 0.0019	0.0917 ± 0.0036
PET substrate: cryPow, 70 °C, pH 7.5	0.367 ± 0.066	0.045 ± 0.0019	0.162 ± 0.034	0.322 ± 0.049
PET substrate: cryPow, 70 °C, pH 8.5	0.164 ± 0.013	0.0206 ± 0.0016	0.0631 ± 0.0059	0.118 ± 0.015
PET substrate: cryPow, 70 °C, pH 9.5	0.0678 ± 0.0021	0.0257 ± 0.0029	0.0938 ± 0.0042	0.4635 ± 0.0039

SNPYQRGPNPTRSALTATGPFSVATYTVSRLLVSGFGGGVIYYPTGTSLTFGGIAMSPGYTADASSLAWLGRRLASHGFVVLVINTNSRFDGPDSRARQLSAALNYLRTSSPSAVRARLDANRLAVAGHSMGGGGTLRIAEQNPSLKAAVPLTPWHPDKTFNTSVPVLIVGAQADTVAPVSQHAIPFYQNLPSTTPKVYVELCNASHIAPNSPNAAISVYTISWMKLWVDNDTRYRQFLCNVNDPALCDFRTNNRHCQ [LCC-ICCG I6M]
Conditions	MHET released, [1] [mM]	PET hydrolysis product formed, [3]	PET hydrolysis product formed, [4]	terephthalic acid, [2] [mM]
PET substrate: aFilm, 60 °C, pH 4.5	0.067 ± 0.012	0	0.0326 ± 0.002	0.104 ± 0.016
PET substrate: aFilm, 60 °C, pH 5.5	0.339 ± 0.17	0.0198 ± 0.0045	0.147 ± 0.082	0.39 ± 0.21
PET substrate: aFilm, 60 °C, pH 6.5	0.534 ± 0.071	0.0378 ± 0.0014	0.223 ± 0.032	0.499 ± 0.059
PET substrate: aFilm, 60 °C, pH 7.5	3.6 ± 0.34	0.0723 ± 0.009	1.32 ± 0.091	2.85 ± 0.34
PET substrate: aFilm, 60 °C, pH 8.5	0.333 ± 0.012	0.0336 ± 0.01	0.169 ± 0.013	0.541 ± 0.045
PET substrate: aFilm, 60 °C, pH 9.5	1.14 ± 0.016	0.0585 ± 0.0028	0.577 ± 0.0065	1.37 ± 0.38
PET substrate: aFilm, 70 °C, pH 4.5	0	0	0	0
PET substrate: aFilm, 70 °C, pH 5.5	0.236 ± 0.035	0.0242 ± 0.0046	0.105 ± 0.017	0.275 ± 0.045
PET substrate: aFilm, 70 °C, pH 6.5	0.211 ± 0.069	0.057 ± 0.02	0.0963 ± 0.031	0.246 ± 0.094
PET substrate: aFilm, 70 °C, pH 7.5	1.51 ± 0.21	0.149 ± 0.0087	0.788 ± 0.054	1.37 ± 0.13
PET substrate: aFilm, 70 °C, pH 8.5	0.164 ± 0.017	0.021 ± 0.0091	0.0775 ± 0.0074	0.209 ± 0.016
PET substrate: aFilm, 70 °C, pH 9.5	0.409 ± 0.12	0.0849 ± 0.037	0.402 ± 0.064	1.33 ± 0.17
PET substrate: cryPow, 60 °C, pH 4.5	0.0591 ± 0.0083	0.0118 ± 0.00054	0.01995 ± 0.00015	0.0328 ± 0.0013
PET substrate: cryPow, 60 °C, pH 5.5	0.178 ± 0.031	0.031 ± 0.0072	0.0583 ± 0.0049	0.102 ± 0.015
PET substrate: cryPow, 60 °C, pH 6.5	0.22 ± 0.0074	0.0457 ± 0.021	0.0726 ± 0.0072	0.105 ± 0.0069
PET substrate: cryPow, 60 °C, pH 7.5	0.206 ± 0.024	0.035 ± 0.013	0.0808 ± 0.017	0.116 ± 0.015
PET substrate: cryPow, 60 °C, pH 8.5	0.113 ± 0.017	0.0317 ± 0.026	0.0461 ± 0.015	0.0874 ± 0.032
PET substrate: cryPow, 60 °C, pH 9.5	0.0594 ± 0.032	0.0174 ± 0.0097	0.0598 ± 0.019	0.263 ± 0.12
PET substrate: cryPow, 70 °C, pH 4.5	0	0	0	0
PET substrate: cryPow, 70 °C, pH 5.5	0.0931 ± 0.0077	0.0164 ± 0.003	0.0302 ± 0.0017	0.0482 ± 0.0048
PET substrate: cryPow, 70 °C, pH 6.5	0.136 ± 0.0089	0.0289 ± 0.00097	0.05 ± 0.0014	0.0691 ± 0.0087
PET substrate: cryPow, 70 °C, pH 7.5	0.275 ± 0.064	0.0329 ± 0.0045	0.122 ± 0.028	0.288 ± 0.082
PET substrate: cryPow, 70 °C, pH 8.5	0.13 ± 0.066	0.0203 ± 0.0016	0.0495 ± 0.023	0.1 ± 0.051
PET substrate: cryPow, 70 °C, pH 9.5	0.0223 ± 0.0028	0.0239 ± 0.0065	0.0468 ± 0.0039	0.25 ± 0.023
